Values quoted from earlier work as cited in patent publication US11173109B2, “Compositions in the form of an injectable aqueous solution comprising amylin, an amylin receptor agonist or an amylin analog and a co-polyamino acid” (ADOCIA, priority 2017, dated 2021).
No end group written: not given here.

Conditions: neutral pH

amylin: peptide of 37 amino acids which is co-stored and co-secreted with insulin (KCNTATCATQRLANFLVHSSNNFGAILSSTNVGSNTY; not fully specified (C-terminus, bridges); cysteine pairing not given here; UniProt P10997 34-70, looked up)
time for which amylin is stable: less than one
